Assay results as given in the supplement of paper PMC7877785.
± gives the uncertainty stated by the source.

Experiment: self-splicing fitness, log relative to wild type (ln ratio); higher = more splicing; Tetrahymena group I intron in knt gene, E. coli kanamycin selection, DiMSum; sequences stand for … in CUCUCU…GGAGGGAAAAGUUAUCAGGCAUGCACCUGGUAGCUAGUCUUUAAACCAAUAGAUUGCAUCGGUUUAAAAGGCAAGACCGUCAAAUUGCGGGAAAGGGGUCAACAGCCGUUCAGUACCAAGUCUCAGGGGAAACUUUGAGAUGGCCUUGCAAAGGGUAUGGUAAUAAGCUGACGGACAUGGUCCUAACCACGCAGCCAAGUCCUAAGUCAACAGAUCUUCUGUUGAUAUGGAUGCAGUUCACAGACUAAAUGUCGGUCGGGGAAGAUGUAUUCUUCUCAUAAGAUAUAGUCGGACCUCUCCUUAAUGGGAGCUAGCGGAUGAAGUGAUGCAACACUGGAGCCGCUGGGAACUAAUUUGUAUGCGAAAGUAUAUUGAUUAGUUUUGGAGUACUCGUGGUCG
How it was run: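 A randomised library covering all eight P1ex-region intron nucleotides was built with the intron in the knt kanamycin-resistance gene on pET-22b(+) and held in E. coli BL21(DE3). Cells were grown overnight at 37°C or 30°C on LB agar, with or without 25 μg/mL kanamycin, plus 100 μg/mL carbenicillin, 50 μM IPTG and 0.2% rhamnose, and pooled colonies were amplicon-sequenced on an Illumina HiSeq 2500. DiMSum fitness is the error-weighted combination of wild-type-normalised replicate fold changes, kanamycin versus none.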

Sequence | self-splicing fitness (ln) (30 °C) | self-splicing fitness (ln) (37 °C)
AGAAAGCAAUAUUACGGCAC | -0.435 ± 0.087 | -0.727 ± 0.13
CAAUAGCAAUAUUACGCGGA | -3.59 ± 0.35 | -2.05 ± 0.16
GGUCAGCAAUAUUACGGGGC | -4.04 ± 0.33 | -1.11 ± 0.4
CCGAAGCAAUAUUACGUAGG | -3.15 ± 0.17 | -2.65 ± 0.23
AAACAGCAAUAUUACGGGAG | -3.34 ± 0.13 | -2.66 ± 0.14
UACCAGCAAUAUUACGCAAA | -1.54 ± 0.081 | 0.0436 ± 0.096
UACUAGCAAUAUUACGUUAC | -3.86 ± 0.27 | -2.44 ± 0.3
CCCUAGCAAUAUUACGCACC | – | -2.9 ± 0.48
ACUGAGCAAUAUUACGCGUG | -2.2 ± 0.092 | -1.05 ± 0.1
GGUAAGCAAUAUUACGCGUC | -1.95 ± 0.2 | 0.649 ± 0.18
AAAGAGCAAUAUUACGAAUA | -1.42 ± 0.35 | –
GUACAGCAAUAUUACGUCGG | -3.45 ± 0.27 | -2.4 ± 0.25
UCUCAGCAAUAUUACGAUGU | -1.07 ± 0.09 | -0.224 ± 0.12
GCCUAGCAAUAUUACGUAUG | -3.92 ± 0.16 | -2.61 ± 0.13
CUGGAGCAAUAUUACGUGUA | -3.32 ± 0.32 | -1.57 ± 0.37
CGUCAGCAAUAUUACGUCGU | -3 ± 0.09 | -1.99 ± 0.11
UGACAGCAAUAUUACGGGGG | -2.61 ± 0.19 | -2.93 ± 0.2
UAACAGCAAUAUUACGUUAC | -3.91 ± 0.2 | -3.09 ± 0.24
UGCUAGCAAUAUUACGCUCC | -2.06 ± 0.23 | -0.757 ± 0.24
CUAUAGCAAUAUUACGCGGG | -3.11 ± 0.28 | -2.88 ± 0.31
AUCUAGCAAUAUUACGCUUC | -3.91 ± 0.36 | -2.03 ± 0.23
CGAAAGCAAUAUUACGGCUA | -1.72 ± 0.13 | -1.6 ± 0.14
CUUGAGCAAUAUUACGGUUA | -2.25 ± 0.15 | -3.21 ± 0.3
CAGGAGCAAUAUUACGUACU | – | -2.97 ± 0.38
UUUUAGCAAUAUUACGUAUG | -2.01 ± 0.19 | -0.735 ± 0.2
GUUUAGCAAUAUUACGGGAG | -1.44 ± 0.18 | -1.83 ± 0.2

Sequence | self-splicing fitness (ln) (30 °C) | self-splicing fitness (ln) (37 °C)
AUUAAGCAAUAUUACGGACU | 0.271 ± 0.11 | 0.324 ± 0.15
CAGUAGCAAUAUUACGUUCA | -0.986 ± 0.14 | -2.31 ± 0.23
UGGUAGCAAUAUUACGGGUU | -4.12 ± 0.18 | -3.49 ± 0.24
ACGUAGCAAUAUUACGACAG | -2.56 ± 0.13 | -0.828 ± 0.13
AGUCAGCAAUAUUACGGCCU | 0.247 ± 0.1 | 0.507 ± 0.13
CCGUAGCAAUAUUACGACAC | -1.82 ± 0.22 | –
CUUUAGCAAUAUUACGUCCG | -0.0797 ± 0.084 | -0.326 ± 0.099
UUUCAGCAAUAUUACGCUUU | -2.69 ± 0.14 | -1.52 ± 0.13
GAAUAGCAAUAUUACGCGUU | -3.4 ± 0.24 | -1.37 ± 0.15
UGUAAGCAAUAUUACGCCGG | -1.46 ± 0.12 | -0.237 ± 0.13
UCUAAGCAAUAUUACGGUGC | -2.58 ± 0.12 | -2.85 ± 0.2
GAAUAGCAAUAUUACGGCUC | 0.451 ± 0.09 | 0.374 ± 0.14
UUGUAGCAAUAUUACGAAAG | -2.43 ± 0.32 | -2.69 ± 0.34
GGACAGCAAUAUUACGUAUU | -0.426 ± 0.049 | -0.492 ± 0.068
UCCCAGCAAUAUUACGUUCU | -3.47 ± 0.21 | -2.5 ± 0.22
GUACAGCAAUAUUACGGAAU | -2.76 ± 0.11 | -1.46 ± 0.12
CCAAAGCAAUAUUACGUCCU | -4.59 ± 0.31 | -2.33 ± 0.21
AUGUAGCAAUAUUACGCUCC | -0.373 ± 0.28 | -0.973 ± 0.45
GGGUAGCAAUAUUACGCAUG | -1.68 ± 0.18 | -2.73 ± 0.32
GUAAAGCAAUAUUACGAAUG | -2.8 ± 0.14 | -1.23 ± 0.2
CUAUAGCAAUAUUACGCGCA | -2.97 ± 0.46 | -1.65 ± 0.47
UAGGAGCAAUAUUACGUACA | -2.47 ± 0.22 | -0.906 ± 0.18
UUAUAGCAAUAUUACGAACU | -2.51 ± 0.18 | -0.944 ± 0.18
AUUUAGCAAUAUUACGACUC | -0.866 ± 0.14 | 0.207 ± 0.16
GAUGAGCAAUAUUACGCAUC | -2.56 ± 0.25 | -2.32 ± 0.28
GGUUAGCAAUAUUACGUAUU | -1.14 ± 0.11 | -0.191 ± 0.1

Sequence | self-splicing fitness (ln) (30 °C) | self-splicing fitness (ln) (37 °C)
UGUGAGCAAUAUUACGGCGC | -1.23 ± 0.33 | –
UGCAAGCAAUAUUACGAUUC | -3.54 ± 0.32 | -1.31 ± 0.21
UAGAAGCAAUAUUACGACGC | -1.84 ± 0.33 | -1.21 ± 0.24
UCCGAGCAAUAUUACGACAA | -2.23 ± 0.46 | –
UUGGAGCAAUAUUACGUAGG | -3.11 ± 0.23 | -1.86 ± 0.15
CGCCAGCAAUAUUACGCGAA | -2.14 ± 0.15 | -1.38 ± 0.15
AGUAAGCAAUAUUACGGGAA | -2.13 ± 0.16 | -2.12 ± 0.19
ACACAGCAAUAUUACGAAUG | -2.63 ± 0.1 | -1.08 ± 0.084
CGAGAGCAAUAUUACGAUUU | -1.8 ± 0.33 | -2.17 ± 0.37
GAUCAGCAAUAUUACGACAU | -0.0993 ± 0.012 | 0.102 ± 0.032
CCGUAGCAAUAUUACGUCCG | 0.211 ± 0.094 | 0.319 ± 0.11
CGCGAGCAAUAUUACGCGUA | -2.59 ± 0.37 | -2.52 ± 0.28
CCAAAGCAAUAUUACGGGGU | -3.24 ± 0.15 | -3.43 ± 0.23
GUCCAGCAAUAUUACGAUUC | -0.315 ± 0.055 | 0.0606 ± 0.075
AGCGAGCAAUAUUACGAGUC | -3.91 ± 0.42 | -2.24 ± 0.24
CUUGAGCAAUAUUACGUUGU | -3.73 ± 0.14 | -2.94 ± 0.14
GCCGAGCAAUAUUACGCUCA | -0.335 ± 0.17 | -0.829 ± 0.21
ACCAAGCAAUAUUACGUUUU | -3.36 ± 0.1 | -2.29 ± 0.096
CCCGAGCAAUAUUACGAGGG | -4.84 ± 0.36 | -2.58 ± 0.22
AGUUAGCAAUAUUACGCGAA | -2.29 ± 0.15 | -1.1 ± 0.13
UUCCAGCAAUAUUACGGUAC | -4.17 ± 0.24 | -2.6 ± 0.23
CGAGAGCAAUAUUACGGGAA | -1.44 ± 0.33 | -1.71 ± 0.44
AGUGAGCAAUAUUACGGUUG | -3.38 ± 0.27 | -1.92 ± 0.24
GGGAAGCAAUAUUACGGUGG | -3.18 ± 0.24 | -2 ± 0.24
AGUCAGCAAUAUUACGCUUU | -0.879 ± 0.063 | 0.0148 ± 0.087
